This note sets out measurements from FireProtDB (doi:10.1093/protein/11.3.213).

For the series the following is noted: Escherichia phage lambda; pH 6.6; 25 °C; Thermal; Fluorescence; phosphate 0.1 M; reversible: yes; whole UniProt chain shown.

B1: Endolysin wild type, P03706 (protein)
chain: MVEINNQRKAFLDMLAWSEGTDNGRQKTRNHGYDVIVGGELFTDYSDHPRKLVTLNPKLKSTGAGRYQLLSRWWDAYRKQLGLKDFSPKSQDAVALQQIKERGALPMIDRGDIRQAIDRCSNIWASLPGAGYGQFEHKADSLIAKFKEAGGTVREIDV
In the case of B1, the unfolding free energy is 3.54 kcal/mol.
